In patent publication US20240067722A1:
Values belong to the binder of their own block, whether it stands above or below them.

Experiments:
[1] = biological target: Recombinant human LAG-3 protein (Fc Chimera), R&D 2319-L3 (human) (UniProt P18627); assay: flow cytometry competition, huLAG-3-Fc on HLA-DR expressing cells, VHH at 500 nM
[2] = biological target: human LAG-3 expressed on cells (human) (UniProt P18627)

percent block of the LAG-3/HLA-DR interaction [1]: 75%
B1: huLAG-3 specific VHH 3185 (VHH)
VHH: QVQLQESGGGLVQPGGSLKLSCAASGFTWDYSAIGWFRQAPGKEREGVSCITSSGKDTQYLDSVKGRFTISRDNTKNTVYLQMNNLKPEDTAVYYCAAPGRVRGSCNGRWDYWGQGTQVTVSS

GFP expression by 2D3 cells (measure of TCR signaling) [2]: 2 fold
percent block of the LAG-3/HLA-DR interaction [1]: 75%
B2: huLAG-3 specific VHH 3150 (VHH)
VHH: QVQLQESGGGLVQAGGSLRLSCAASGITFDDYAIGWFRQAPGKEREGVSCIRSSDDSTYYADSVKGRFTISSDNAKNTVYLQMNSLKPEDTAVYYCARDVYSDCKGPYDSWGRGTQVTVSS
